Test results as given in paper PMC10245933.
Like-named read-outs stand apart in the source and are kept apart here.

Columns and labels:
[1] = molecular target: NOPLight (human (NOPR part)); experiment: sensor fluorescence in brain slices
[2] = molecular target: NOPLight (human (NOPR part)); experiment: other fluorescence titration
[3] = molecular target: NOPLight (human (NOPR part)); experiment: other fluorescence titration; remark: listed apart in the source
[4] = molecular target: NOPLight (human (NOPR part)); experiment: sensor fluorescence kinetics
[5] = molecular target: NOPLight (human (NOPR part)); experiment: other fluorescence titration; remark: listed apart in the source

Substance: endogenous N/OFQ released from PNOC neurons (peptide)
- F/F0 upon CNO-evoked release [1]: 1.6%

Substance: Nociceptin/orphanin-FQ peptide (from UniProt Q13519 130-146)
- ΔF/F0 upon N/OFQ [2]: 378%
- EC50 [3]: 28.6 nM
- ΔF/F0 upon N/OFQ [3]: 388%
- τON (time constant of signal activation) [4]: 595 ms
- EC50 [5]: 42.8 nM
